T1: Sla1-3, P32790
T1 sequence (P32790 344-424, looked up): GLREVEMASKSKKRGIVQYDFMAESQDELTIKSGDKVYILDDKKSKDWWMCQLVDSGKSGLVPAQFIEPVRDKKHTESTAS

T2: Nbp2, Q12163
T2 sequence (Q12163 103-180, looked up): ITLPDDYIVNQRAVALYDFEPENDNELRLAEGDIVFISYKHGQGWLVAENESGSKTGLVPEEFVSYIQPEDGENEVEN

T3: Lsb3, P43603
T3 sequence (P43603 385-451, looked up): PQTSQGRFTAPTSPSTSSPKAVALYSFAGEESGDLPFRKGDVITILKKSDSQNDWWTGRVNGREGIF

T4: Cyk3, Q07533
T4 sequence (Q07533 1-83, looked up): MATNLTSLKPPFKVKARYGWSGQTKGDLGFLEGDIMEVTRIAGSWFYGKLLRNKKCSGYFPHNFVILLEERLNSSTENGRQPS

T5: Hof1, Q05080
T5 sequence (Q05080 590-669, looked up): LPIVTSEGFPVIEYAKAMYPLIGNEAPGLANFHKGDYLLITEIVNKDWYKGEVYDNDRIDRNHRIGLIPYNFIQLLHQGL

T6: Fus1, P11710
T6 sequence (P11710 432-512, looked up): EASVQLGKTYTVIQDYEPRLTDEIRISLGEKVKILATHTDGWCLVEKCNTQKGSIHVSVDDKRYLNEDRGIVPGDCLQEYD

T7: Bbc1, P47068
T7 sequence (P47068 1-78, looked up): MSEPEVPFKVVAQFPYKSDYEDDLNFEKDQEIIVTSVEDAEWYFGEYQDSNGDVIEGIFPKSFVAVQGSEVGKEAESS

T8: Bzz1-1, P38822
T8 sequence (P38822 478-572, looked up): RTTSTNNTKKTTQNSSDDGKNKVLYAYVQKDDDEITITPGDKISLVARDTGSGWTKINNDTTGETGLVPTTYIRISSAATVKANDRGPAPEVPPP

T9: Lsb4, P32793
T9 sequence (P32793 402-468, looked up): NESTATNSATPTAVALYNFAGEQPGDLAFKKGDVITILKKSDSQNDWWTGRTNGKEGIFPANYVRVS

T10: Myo5, Q04439
T10 sequence (Q04439 1072-1160, looked up): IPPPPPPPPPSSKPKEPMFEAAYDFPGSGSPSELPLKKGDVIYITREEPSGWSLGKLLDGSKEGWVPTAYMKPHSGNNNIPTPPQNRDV

T11: Pex13, P80667
T11 sequence (P80667 295-386, looked up): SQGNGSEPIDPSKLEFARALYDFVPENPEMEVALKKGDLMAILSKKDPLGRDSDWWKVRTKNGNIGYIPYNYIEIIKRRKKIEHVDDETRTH

T12: Lsb1, P53281
T12 sequence (P53281 45-122, looked up): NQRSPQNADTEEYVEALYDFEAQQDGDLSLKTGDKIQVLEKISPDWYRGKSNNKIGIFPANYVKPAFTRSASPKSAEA

T13: Pin3, Q06449
T13 sequence (Q06449 53-122, looked up): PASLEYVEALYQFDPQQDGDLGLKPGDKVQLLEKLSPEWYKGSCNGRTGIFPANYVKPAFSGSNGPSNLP

T14: Sla1-2, P32790
T14 sequence (P32790 60-140, looked up): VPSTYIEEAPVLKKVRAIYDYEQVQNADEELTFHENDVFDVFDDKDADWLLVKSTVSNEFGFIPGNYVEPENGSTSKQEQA

T15: Bud14, P27637
T15 sequence (P27637 247-328, looked up): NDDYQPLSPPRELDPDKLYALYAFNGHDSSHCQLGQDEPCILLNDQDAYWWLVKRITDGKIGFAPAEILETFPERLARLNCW

T16: Boi2, P39969
T16 sequence (P39969 32-116, looked up): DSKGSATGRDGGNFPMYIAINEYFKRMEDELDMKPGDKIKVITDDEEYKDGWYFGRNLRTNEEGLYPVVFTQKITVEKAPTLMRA

T17: Bzz1-2, P38822
T17 sequence (P38822 568-633, looked up): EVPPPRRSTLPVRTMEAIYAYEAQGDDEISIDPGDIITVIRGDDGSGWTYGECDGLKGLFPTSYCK

T18: Cdc25, P04821
T18 sequence (P04821 50-136, looked up): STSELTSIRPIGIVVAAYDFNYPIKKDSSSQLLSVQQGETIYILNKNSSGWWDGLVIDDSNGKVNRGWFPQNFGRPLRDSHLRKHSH

T19: Hse1, P38753
T19 sequence (P38753 208-285, looked up): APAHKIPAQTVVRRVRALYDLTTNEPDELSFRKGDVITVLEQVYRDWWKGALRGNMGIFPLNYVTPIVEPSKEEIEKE

T20: Abp1, P15891
T20 sequence (P15891 535-592, looked up): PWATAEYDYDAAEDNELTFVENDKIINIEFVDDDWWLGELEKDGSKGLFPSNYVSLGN

T21: Boi1, P38041
T21 sequence (P38041 1-86, looked up): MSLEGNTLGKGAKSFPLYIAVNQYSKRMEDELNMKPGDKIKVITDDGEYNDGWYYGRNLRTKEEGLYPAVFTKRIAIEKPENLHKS

B1: unnamed (peptide)
chain: NSVPIMPTLPPRPYI
B2: unnamed (peptide)
chain: LYKRKPILLPDPKPL
B3: unnamed (peptide)
chain: MARRRLPDRPPNGIG
B4: unnamed (peptide)
chain: GAGERPRLVPRPINV
B5: unnamed (peptide)
chain: NLDRSKISLPDFDDE
B6: unnamed (peptide)
chain: DAPASKPSVPPRNYF

The binders below were run against T1, Sla1-3, P32790 (assay: SPOT array). Conditions: median of control spots 5475.

Binder	SPOT intensity
B1	0
B2	0
B3	36
B4	0
B5	2
B6	12

These binders were tested against T2, Nbp2, Q12163 (assay: SPOT array). Conditions: median of control spots 357.

Binder	SPOT intensity
B1	0
B2	1
B3	3
B4	2
B5	6
B6	2

What follows are binders tested against Rvs167, P39743 (assay: SPOT array). Conditions: median of control spots 2707.
Rvs167, P39743, sequence (P39743 419-482): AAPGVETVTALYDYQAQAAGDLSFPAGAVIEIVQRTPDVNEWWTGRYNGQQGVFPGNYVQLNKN

Binder	SPOT intensity
B1	157
B2	0
B3	1590
B4	4
B5	6
B6	58

What follows are binders tested against T3, Lsb3, P43603 (assay: SPOT array). Conditions: median of control spots 406.

Binder	SPOT intensity
B1	242
B2	0
B3	175
B4	60
B5	0
B6	125

These binders were tested against T4, Cyk3, Q07533 (assay: SPOT array). Conditions: median of control spots 1451.

Binder	SPOT intensity
B1	2
B2	0
B3	0
B4	3
B5	4
B6	1

The binders below were run against T5, Hof1, Q05080 (assay: SPOT array). Conditions: median of control spots 4086.

Binder	SPOT intensity
B1	2750
B2	0
B3	130
B4	11
B5	8
B6	0

What follows are binders tested against T6, Fus1, P11710 (assay: SPOT array). Conditions: median of control spots 1200.

Binder	SPOT intensity
B1	0
B2	0
B3	0
B4	0
B5	4
B6	0

What follows are binders tested against T7, Bbc1, P47068 (assay: SPOT array). Conditions: median of control spots 796.

Binder	SPOT intensity
B1	109
B2	2
B3	69
B4	30
B5	15
B6	6

What follows are binders tested against T8, Bzz1-1, P38822 (assay: SPOT array). Conditions: median of control spots 4446.

Binder	SPOT intensity
B1	0
B2	0
B3	0
B4	1
B5	3
B6	0

Each binder was assayed against T9, Lsb4, P32793 (assay: SPOT array). Conditions: median of control spots 397.

Binder	SPOT intensity
B1	513
B2	0
B3	533
B4	105
B5	5
B6	231

What follows are binders tested against T10, Myo5, Q04439 (assay: SPOT array). Conditions: median of control spots 471.

Binder	SPOT intensity
B1	25
B2	1
B3	5
B4	1
B5	0
B6	0

The binders below were run against T11, Pex13, P80667 (assay: SPOT array). Conditions: median of control spots 1341.

Binder	SPOT intensity
B1	172
B2	1
B3	99
B4	24
B5	3
B6	91

Each binder was assayed against Sho1, P40073 (assay: SPOT array). Conditions: median of control spots 1148.
Sho1, P40073, sequence (P40073 287-367): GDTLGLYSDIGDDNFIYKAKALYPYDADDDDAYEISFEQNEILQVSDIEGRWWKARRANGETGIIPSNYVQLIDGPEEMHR

Binder	SPOT intensity
B1	0
B2	15
B3	393
B4	4
B5	16
B6	0

These binders were tested against T12, Lsb1, P53281 (assay: SPOT array). Conditions: median of control spots 388.

Binder	SPOT intensity
B1	176
B2	1210
B3	587
B4	18
B5	84
B6	1310

What follows are binders tested against T13, Pin3, Q06449 (assay: SPOT array). Conditions: median of control spots 2171.

Binder	SPOT intensity
B1	28
B2	7
B3	91
B4	5
B5	8
B6	23

These binders were tested against Bem1-2, P29366 (assay: SPOT array). Conditions: median of control spots 4347.
Bem1-2, P29366, sequence (P29366 139-227): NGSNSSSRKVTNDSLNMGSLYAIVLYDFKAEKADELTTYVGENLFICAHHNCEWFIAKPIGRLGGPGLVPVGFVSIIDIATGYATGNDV

Binder	SPOT intensity
B1	2
B2	0
B3	78
B4	1
B5	0
B6	0

Each binder was assayed against GST (assay: SPOT array). Conditions: median of control spots 978.

Binder	SPOT intensity
B1	1
B2	2
B3	0
B4	0
B5	36
B6	0

What follows are binders tested against T14, Sla1-2, P32790 (assay: SPOT array). Conditions: median of control spots 712.

Binder	SPOT intensity
B1	0
B2	0
B3	1
B4	1
B5	1
B6	0

The binders below were run against Myo3, P36006 (assay: SPOT array). Conditions: median of control spots 468.

Binder	SPOT intensity
B1	26
B2	0
B3	15
B4	0
B5	1
B6	0

What follows are binders tested against T15, Bud14, P27637 (assay: SPOT array). Conditions: median of control spots 956.

Binder	SPOT intensity
B1	0
B2	1
B3	4
B4	0
B5	20
B6	0

Each binder was assayed against T16, Boi2, P39969 (assay: SPOT array). Conditions: median of control spots 1161.

Binder	SPOT intensity
B1	0
B2	0
B3	0
B4	0
B5	2
B6	0

What follows are binders tested against T17, Bzz1-2, P38822 (assay: SPOT array). Conditions: median of control spots 4538.

Binder	SPOT intensity
B1	0
B2	0
B3	160
B4	0
B5	3
B6	0

These binders were tested against T18, Cdc25, P04821 (assay: SPOT array). Conditions: median of control spots 969.

Binder	SPOT intensity
B1	0
B2	0
B3	14
B4	18
B5	35
B6	0

Each binder was assayed against T19, Hse1, P38753 (assay: SPOT array). Conditions: median of control spots 1727.

Binder	SPOT intensity
B1	368
B2	2
B3	126
B4	7
B5	3
B6	0

These binders were tested against Bem1-1, P29366 (assay: SPOT array). Conditions: median of control spots 4282.
Bem1-1, P29366, sequence (P29366 55-141): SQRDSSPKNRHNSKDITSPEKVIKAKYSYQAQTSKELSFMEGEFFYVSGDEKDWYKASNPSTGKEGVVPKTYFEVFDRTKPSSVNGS

Binder	SPOT intensity
B1	0
B2	0
B3	0
B4	3
B5	3
B6	0

These binders were tested against T20, Abp1, P15891 (assay: SPOT array). Conditions: median of control spots 935.

Binder	SPOT intensity
B1	14
B2	43
B3	113
B4	9
B5	23
B6	17

Each binder was assayed against T21, Boi1, P38041 (assay: SPOT array). Conditions: median of control spots 1162.

Binder	SPOT intensity
B1	0
B2	0
B3	0
B4	3
B5	7
B6	0
